Laboratory results reported in patent US20180282373.

B1: GST-tagged SETd1B Win-SET domain, Setd1B(1727-1966), R1748A (protein)
chain: LSSAKKKKRDDGIREHVTGCAASEGFYTIDKKDKLRYLNSSRASTDEPPADTQGMSIPAQPHASTRAGSERRSEQRRLLSSFTGSCDSDLLKFNQLKFRKKKLKFCKSHIHDWGLFAMEPIAADEMVIEYVGQNIRQVIADMREKRYEDEGIGSSYMFRVDHDTIIDATKCGNFARFINHSCNPNCYAKVITVESQKKIVIYSKQHINVNEEITYDYKFPIEDVKIPCLCGSENCRGTLN
B2: GST-tagged MLL3 Win-SET domain, MLL3(4689-4911), R4710A (protein)
chain: FRYGRNPLMELPLAVNPTGCAASEPKMSAHVKRFVLRPHTLNSTSTSKSFQSTVTGELNAPYSKQFVHSKSSQYRKMKTEWKSNVYLARSRIQGLGLYAARDIEKHTMVIEYIGTIIRNEVANRKEKLYESQNRGVYMFRMDNDHVIDATLTGGPARYINHSCAPNCVAEVVTFERGHKIIISSSRRIQKGEELCYDYKFDFEDDQHKIPCHCGAVNCRKWMN

Biological target: purified recombinant full-length WDR5, P61964

Protein | core complex methyltransferase activity, H3K4me1 and H3K4me2 peptides, mutant against wild type | core complex methyltransferase activity, H3K4me0 peptide, mutant against wild type
B1 | showed similar amounts of activity compared to that of their wild-type counterparts | –
B2 | – | approximately 2-fold more activity than the wild-type MLL3 core complex
